B1: CATCH(-) peptide, Ac-EQEFEFEFEQE-Am (peptide)
peptide: Ac-EQEFEFEFEQE-NH2
notes: Synthetic anionic variant of Q11; also called CATCH (6-); CATCH(6-)
B2: mCATCH(+) peptide, Ac-QQKPKPKPKQQ-Am (peptide)
peptide: Ac-QQKPKPKPKQQ-NH2
notes: Mutant of CATCH(+) with proline in place of the phenylalanine residues; also called mutant CATCH(4+); mCATCH (4+)
B3: CATCH(+) peptide, Ac-QQKFKFKFKQQ-Am (peptide)
peptide: Ac-QQKFKFKFKQQ-NH2
notes: Synthetic cationic variant of Q11; also called CATCH (4+); CATCH(4+)

In data set [1] the target is CATCH(+) peptide, Ac-…-Am. As to the kind of experiment: fluorescence microscopy of binary mixtures (FIG. 33A: 0.75 µM CATCH(+)).
Data set [2] concerns the target B2. As to the kind of experiment: ThT fluorimetry, equimolar mixture in 1xPBS. The method, then: (§1) Thioflavin T (ThT) Assay. A ThT stock solution containing 0.8 mg/mL of thioflavin T (Acros) in 1× phosphate-buffered saline (PBS) (137 mM NaCl, 2.7 mM KCl, 10 mM Na₂HPO₄ and 1.8 mM KH₂PO₄, pH 7.4) was filtered through a 0.22 μm syringe filter (Millex), and further diluted 1:10 with 1×PBS to create a working solution. Peptide samples were mixed with the ThT working solution at a 1:10 (v/v) ratio, added to a black 96-well plate (Corning), and analyzed with a Molecular Devices SpectraMax M3 spectrophotometer (excitation 450, emission 482 nm). All samples were run in triplicate, with the mean and standard deviation of these samples reported.

Data set [3] deals with the molecule itself. Kind of data set: ThT fluorimetry, TEM, circular dichroism and fluorescence microscopy of the peptide alone.
Data set [4] addresses T1, mCATCH(-) peptide, Ac-EQEPEPEPEQE-Am.
T1 construct: Mutant of CATCH(-) with proline in place of the phenylalanine residues
T1 peptide: Ac-EQEPEPEPEQE-NH2
As to the kind of experiment: ThT fluorimetry, kinetic analysis.

Data set [5] has the same target. Kind of data set: ThT fluorimetry, equimolar mixture in 1xPBS. The method, then: as §1

Take “CATCH(-)GFP, recombinant fusion of CATCH(-) and superfolder green fluorescent protein”: the concentration below which only diffuse fluorescence (no microparticles) was observed in data set [1] was under 7.5 µM.
In the case of B1, the binding result in data set [2] and in data set [3] was “no binding” in each case.
As to B2, the binding result in data set [4] is on record as “no binding”.
As for B3, the binding result in data set [5] and in data set [3] was “no binding” in each case.
